“And” between values parts separate entries of the source, which are not always exact repeats. Identical values can stand only once.
B1: Anti-KRAS/Anti-STAT3 VHH (SBT-100 (SEQ ID NO: 1)) (VHH)
VHH: HVQLVESGGGSVQAGGSLRLSCAASGANGGRSCMGWFRQVPGKEREGVSGISTGGLITYYADSVKGRFTISQDNTKNTLYLQMNSLKPEDTAMYYCATSRFDCYRGSWFNRYMYNSWGQGTQVTVSS
B2: Anti-KRAS VHH (SBT-102 (SEQ ID NO: 2)) (VHH)
VHH: EVQLVESGGGSVQTGGSLRLSCAVSGNIGSSYCMGWFRQAPGKKREAVARIVRDGATGYADYVKGRFTISRDSAKNTLYLQMNRLIPEDTAIYYCAADLPPGCLTQAIWNFGYRGQGTLVTVSS

Legend:
[1] = target: STAT3 (endogenous, in human cells and from lysed cancer cell lines) (human, UniProt P40763 2-770); experiment: cell-based or functional assay
[2] = target: T1, Human STAT3 Protein (recombinant) (human, UniProt P40763 1-770); experiment: SPR, Biacore 3000
T1 construct: also called recombinant STAT3

Row | Binder | IC50, STAT3 luciferase reporter assay in HEK 293 cells after IL-6 stimulation [1] | binding result [2]
1 | B1 | 2.68 µg/mL and 0.18 µM | –
2 | B2 | – | no binding

Source: patent US20240101652A1 (SINGH BIOTECHNOLOGY, published 2024)
